Measurements: patent US20150329824A1 (NATIONAL CHENG KUNG UNIVERSITY, published 2015)
No end group written: not given here.

Biological target: T1, membrane hyaluronidase Hyal-2 on spleen cells of NOD-SCID mice (mouse (spleen cells of NOD-SCID mice), UniProt O35632 21-448)
T1 construct: whole, on cells; Endogenous protein on mouse spleen cells, detected with an antibody against Hyal-2; also called hyaluronidase-2
T1 sequence (looked up): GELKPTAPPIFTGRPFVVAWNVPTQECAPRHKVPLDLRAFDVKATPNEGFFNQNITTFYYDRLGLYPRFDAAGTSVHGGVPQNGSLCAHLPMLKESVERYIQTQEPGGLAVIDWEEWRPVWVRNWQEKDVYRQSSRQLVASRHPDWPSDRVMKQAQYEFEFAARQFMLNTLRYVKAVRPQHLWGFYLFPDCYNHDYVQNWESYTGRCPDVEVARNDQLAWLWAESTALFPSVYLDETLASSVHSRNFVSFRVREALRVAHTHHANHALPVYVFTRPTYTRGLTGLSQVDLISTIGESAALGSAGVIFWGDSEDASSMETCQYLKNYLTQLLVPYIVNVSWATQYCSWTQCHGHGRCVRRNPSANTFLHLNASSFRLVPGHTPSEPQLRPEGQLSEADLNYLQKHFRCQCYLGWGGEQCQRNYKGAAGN
Assay: epifluorescence and confocal microscopy of NOD-SCID spleen cells stained with TMR-Zfra1-31 and Hyal-2 antibody
Procedure: FIG. 2 includes photos showing the identification of Zfra⁺ Hyal-2⁺ spleen cells. A and B: Spleen cells of NOD-SCID mice were isolated and stained with synthesized peptide TMR-Zfra₁₋₃₁ and Hyal-2 (green fluorescence) antibody for 30 minutes on ice, and then fixed with 4% formaldehyde. Zfra bound to membrane hyaluronidase Hyal-2, as determined by epifluorescence and confocal microscopy.
In this example, spleen cells were isolated from immune deficient NOD-SCID mice, which are deficient in T and B lymphocytes and NK cells. The isolated spleen cells were stained with antibody against Hyal-2 (green) and TMR-Zfra (Zfra₁₋₃₁ labeled with red fluorescent tetramethylrodamine) for 30 minutes on ice, and then fixed with 4% formaldehyde (FIG. 2). […] These Hyal-2⁺ Zfra⁺ positive cells are interchangeably referred to as “Z cells,” for cells interacting with Zfra.

B1: TMR-Zfra1-31 (Zfra1-31 labeled with red fluorescent tetramethylrodamine) (peptide)
peptide: MSSRRSSSCKYCEQDFRAHTQKNAATPFLAN
modifications: cysteine pairing not given here; also: tetramethylrhodamine (TMR) label, position not given here
notes: Synthesized full-length Zfra peptide with a TMR label, used to stain spleen cells; also called Tetramethylrhodamine-Zfra
B1: binds.
